Test results from patent US20260103689.

What was measured:
[1] = tested on: SB100X Q124C transposase Q124C (synthetic construct); test: cell_activity; conditions: HepG2 colony-forming transposition; hyperactive at 500 and 2500 ng plasmid
[2] = tested on: SB100X Sleeping Beauty transposase (synthetic construct); test: cell_activity; conditions: HepG2 colony-forming transposition; integrates at TA

Substance: SB transposon pT2/Puro (puro-tagged, terminal inverted repeats)
- transposition activity (colony formation, fold vs SB100X) (fold vs SB100X) [1]: 2
- transposition activity (colony formation, fold vs SB100X) (fold (reference)) [2]: 1
